{"source": "patent US20120114590A1", "about": "(priority 2005, published 2012)", "key": {"EMCV": {"system": "EMCV", "assay": "EMCV antiviral assay (MTT dye uptake) in HepG2 cells", "assay_type": "cell-based, encephalomyocarditis virus", "settings": "cytokine 24 hours before EMCV challenge"}, "[1]": {"system": "293 HEK cells overexpressing zcytor19", "assay": "Inhibition of ligand-induced ISRE-luciferase signaling by soluble receptors", "assay_type": "cell-based, human", "settings": "10 ng/ml ligand, 10 micrograms/ml soluble receptor, 4-hour; relative to PBS alone"}, "BVDV": {"system": "BVDV", "assay": "BVDV inhibition of cytopathic effect assay in MDBK cells", "assay_type": "cell-based, bovine viral diarrhea virus", "settings": "MDBK bovine kidney cells, day 7", "protocol": "The MDBK cells were propagated in Dulbecco's modified essential medium (DMEM) containing phenol red with 10% horse serum, 1% glutamine and 1% penicillin-streptomycin. CPE inhibition assays were performed in DMEM without phenol red with 2% FBS, 1% glutamine and 1% Pen-Strep. On the day preceding the assays, cells were trypsinized (1% trypsin-EDTA), washed, counted and plated out at 10^4 cells/well in a 96-well flat-bottom BioCoat® plates (Fisher Scientific, Pittsburgh, Pa.) in a volume of 100 μl/well. The next day, the medium was removed and a pre-titered aliquot of virus was added to the cells. The amount of virus was the maximum dilution that would yield complete cell killing (>80%) at the time of maximal CPE development (day 7 for BVDV). Cell viability was determined using a CellTiter96® reagent (Promega) according to the manufacturer's protocol, using a Vmax plate reader (Molecular Devices, Sunnyvale, Calif.). Test samples were tested at six concentrations each, diluted in assay medium in a half-log series. IFNα and RIBAVIRIN® were used as positive controls. Test sample were added at the time of viral infection. The average background and sample color-corrected data for percent CPE reduction and percent cell viability at each concentration were determined relative to controls and the IC50 calculated relative to the TC50."}, "[2]": {"system": "Respiratory syncytial virus", "assay_type": "cell-based"}, "Rhino 2": {"system": "Rhino 2", "assay_type": "cell-based, rhino virus", "settings": "Rhino 2, KB"}, "Rhino 9 [3]": {"system": "Rhino 9", "assay_type": "cell-based, rhino virus", "settings": "Rhino 9, HeLa"}, "[4]": {"system": "Influenza (type A [H3N2])", "assay_type": "cell-based", "settings": "Maden-Darby Canine Kidney"}, "Vaccinia virus [5]": {"system": "Vaccinia virus", "assay_type": "cell-based", "settings": "Vero"}, "Dengue virus [6]": {"system": "Dengue virus", "assay_type": "cell-based", "settings": "Vero"}, "[7]": {"system": "Venezuelan equine encephalitis virus", "assay_type": "cell-based", "settings": "Vero"}, "Pichinde virus": {"system": "Pichinde virus", "assay_type": "cell-based"}, "Adenovirus": {"system": "Adenovirus", "assay_type": "cell-based", "settings": "A549 cells, Neutral Red Assay"}, "Parainfluenza virus": {"system": "Parainfluenza virus", "assay_type": "cell-based", "settings": "MA-104 cells, Neutral Red Assay"}, "[8]": {"system": "Respiratory syncytial virus", "assay_type": "cell-based", "settings": "MA-104 cells, Neutral Red Assay"}, "Rhino 9 [9]": {"system": "Rhino 9", "assay_type": "cell-based, rhino virus", "settings": "Rhino 9, HeLa cells, Neutral Red Assay"}, "Coxsackie B4 virus": {"system": "Coxsackie B4 virus", "assay_type": "cell-based", "settings": "KB cells, Neutral Red Assay"}, "[10]": {"system": "Influenza (type A [H3N2])", "assay_type": "cell-based", "settings": "Maden-Darby Canine Kidney cells, Neutral Red Assay"}, "Vaccinia virus [11]": {"system": "Vaccinia virus", "assay_type": "cell-based", "settings": "Vero cells, Neutral Red Assay"}, "West Nile virus": {"system": "West Nile virus", "assay_type": "cell-based", "settings": "Vero cells, Neutral Red Assay"}, "Dengue virus [12]": {"system": "Dengue virus", "assay_type": "cell-based", "settings": "Vero cells, Neutral Red Assay"}, "[13]": {"system": "Venezuelan equine encephalitis virus", "assay_type": "cell-based", "settings": "Vero cells, Neutral Red Assay"}, "[14]": {"system": "spleens of transgenic mice", "assay": "ISG expression in spleens of Eu-lck human IL-29 transgenic mice (real-time PCR)", "assay_type": "in vivo, mouse", "settings": "spleens of Eu-lck IL-29 transgenic mice; fold expression relative to HPRT; average of two mice", "protocol": "This promoter is active in T cells and B cells. Transgenic mice and their non-transgenic littermates (n=2/gp) were sacrificed at about 10 weeks of age. Spleens of mice were isolated. RNA was isolated from cell pellets using RNAEasy-kit® (Qiagen). RNA was treated with DNase to clean RNA of any contaminating DNA. cDNA was generated using Perkin-Elmer RT® mix. ISG gene induction was evaluated by real-time PCR using primers and probes (5′ FAM, 3′ NFQ) specific for mouse OAS, Pkr and Mx1. To obtain quantitative data, HPRT real-time PCR was duplexed with ISG PCR. Furthermore, a standard curve was obtained using known amounts of IFN stimulated mouse PBLs. All data are shown as expression relative to internal HPRT expression."}, "[15]": {"system": "human marrow mononuclear cells"}}}
{"molecule": "IL-29: human IL-29 cytokine polypeptide (zcyto21), e.g. SEQ ID NO:20 (protein, listed as Homo sapiens, SIGNAL (1)...(19)) MAAAWTVVLVTLVLGLAVAGPVPTSKPTTTGKGCHIGRFKSLSPQELASFKKARDALEESLKLKNWSCSSPVFPGNWDLRLLQVRERPVALEAELALTLKVLEAAAGPALEDVLDQPLHTLHHILSQLQACIQPQPTAGPRPRGRLHHWLHRLQEAPKKESAGCLEASVTFNLFRLLTRDLKYVADGNLCLRTSTHPEST", "values": [{"measurement": "EC50 (antiviral activity, OD570)", "setting": "EMCV", "value": 0.0006, "unit": "mg/L"}, {"measurement": "Percent Inhibition of Ligand-induced ISRE Signaling by HuCRF2-4-Fc", "setting": "[1]", "value": 79, "unit": "%"}, {"measurement": "Percent Inhibition of Ligand-induced ISRE Signaling by Huzcytor19-Fc", "setting": "[1]", "value": 45, "unit": "%"}, {"measurement": "Percent Inhibition of Ligand-induced ISRE Signaling by Huzcytor19-Fc/huCRF2-4-Fc", "setting": "[1]", "value": 16, "unit": "%"}, {"measurement": "Percent Inhibition of Ligand-induced ISRE Signaling by Muzcytor19-Ig", "setting": "[1]", "value": 103, "unit": "%"}, {"measurement": "IC50 (inhibition of cell death induced by BVDV)", "setting": "BVDV", "value": 0.19, "unit": "mg/L"}, {"measurement": "EC50 Visual", "setting": "[2]; MA-104", "value": ">10", "unit": "mg/L"}, {"measurement": "IC50 Visual", "setting": "[2]; MA-104, numerator of SI", "value": ">10", "unit": "mg/L"}, {"measurement": "EC50 Visual", "setting": "Rhino 2", "value": ">10", "unit": "mg/L"}, {"measurement": "IC50 Visual", "setting": "Rhino 2; numerator of SI", "value": ">10", "unit": "mg/L"}, {"measurement": "EC50 Visual", "setting": "Rhino 9 [3]", "value": ">10", "unit": "mg/L"}, {"measurement": "IC50 Visual", "setting": "Rhino 9 [3]; numerator of SI", "value": ">10", "unit": "mg/L"}, {"measurement": "EC50 Visual", "setting": "[4]", "value": ">10", "unit": "mg/L"}, {"measurement": "IC50 Visual", "setting": "[4]; numerator of SI", "value": ">10", "unit": "mg/L"}, {"measurement": "EC50 Visual", "setting": "Vaccinia virus [5]", "value": ">10", "unit": "mg/L"}, {"measurement": "IC50 Visual", "setting": "Vaccinia virus [5]; numerator of SI", "value": ">10", "unit": "mg/L"}, {"measurement": "EC50 Visual", "setting": "Dengue virus [6]", "value": 0.032, "unit": "mg/L"}, {"measurement": "IC50 Visual", "setting": "Dengue virus [6]; numerator of SI", "value": ">10", "unit": "mg/L"}, {"measurement": "EC50 Visual", "setting": "[7]", "value": 0.012, "unit": "mg/L"}, {"measurement": "IC50 Visual", "setting": "[7]; numerator of SI", "value": ">10", "unit": "mg/L"}, {"measurement": "EC50 Visual", "setting": "Pichinde virus", "value": ">10", "unit": "mg/L"}, {"measurement": "IC50 Visual", "setting": "Pichinde virus", "value": ">10", "unit": "mg/L"}, {"measurement": "EC50 NR", "setting": "Adenovirus", "value": ">10", "unit": "mg/L"}, {"measurement": "IC50 NR", "setting": "Adenovirus", "value": ">10", "unit": "mg/L"}, {"measurement": "EC50 NR", "setting": "Parainfluenza virus", "value": ">10", "unit": "mg/L"}, {"measurement": "IC50 NR", "setting": "Parainfluenza virus", "value": ">10", "unit": "mg/L"}, {"measurement": "EC50 NR", "setting": "[8]", "value": ">10", "unit": "mg/L"}, {"measurement": "IC50 NR", "setting": "[8]", "value": ">10", "unit": "mg/L"}, {"measurement": "EC50 NR", "setting": "Rhino 9 [9]", "value": 0.982, "unit": "mg/L"}, {"measurement": "IC50 NR", "setting": "Rhino 9 [9]", "value": ">10", "unit": "mg/L"}, {"measurement": "EC50 NR", "setting": "Coxsackie B4 virus", "value": ">10", "unit": "mg/L"}, {"measurement": "IC50 NR", "setting": "Coxsackie B4 virus", "value": ">10", "unit": "mg/L"}, {"measurement": "EC50 NR", "setting": "[10]", "value": ">10", "unit": "mg/L"}, {"measurement": "IC50 NR", "setting": "[10]", "value": ">10", "unit": "mg/L"}, {"measurement": "EC50 NR", "setting": "Vaccinia virus [11]", "value": ">10", "unit": "mg/L"}, {"measurement": "IC50 NR", "setting": "Vaccinia virus [11]", "value": ">10", "unit": "mg/L"}, {"measurement": "EC50 NR", "setting": "West Nile virus", "value": 0.00025, "unit": "mg/L"}, {"measurement": "IC50 NR", "setting": "West Nile virus", "value": ">10", "unit": "mg/L"}, {"measurement": "EC50 NR", "setting": "Dengue virus [12]", "value": 0.05, "unit": "mg/L"}, {"measurement": "IC50 NR", "setting": "Dengue virus [12]", "value": ">10", "unit": "mg/L"}, {"measurement": "EC50 NR", "setting": "[13]", "value": 0.05, "unit": "mg/L"}, {"measurement": "IC50 NR", "setting": "[13]", "value": ">10", "unit": "mg/L"}, {"measurement": "Mx1", "setting": "[14]", "value": 21}, {"measurement": "OAS", "setting": "[14]", "value": 12}, {"measurement": "PkR", "setting": "[14]", "value": 8}, {"measurement": "bone marrow cell expansion", "setting": "[15]; in the presence of IL-2 or IL-15", "value": "small inhibition"}, {"measurement": "expansion of bone marrow cells", "setting": "[15]; in the presence of IL-3, IL-4, IL-5, IL-7, IL-10, IL-12, IL-21 or no added cytokine", "value": "no significant effect"}]}
